# Assay results published in US20180282410A1 (Hoffmann-La Roche, published 2018).
# T1: human (hu) Robo 4 extracellular domain (ECD)-precision site (PreS)-Avi-tag (Avi)-6x histidine (His) (human)
# T1 construct: it holds the ECD with PreScission site, Avi-tag and His-tag; also called recombinant human Robo 4; human Robo 4
# T1 chain: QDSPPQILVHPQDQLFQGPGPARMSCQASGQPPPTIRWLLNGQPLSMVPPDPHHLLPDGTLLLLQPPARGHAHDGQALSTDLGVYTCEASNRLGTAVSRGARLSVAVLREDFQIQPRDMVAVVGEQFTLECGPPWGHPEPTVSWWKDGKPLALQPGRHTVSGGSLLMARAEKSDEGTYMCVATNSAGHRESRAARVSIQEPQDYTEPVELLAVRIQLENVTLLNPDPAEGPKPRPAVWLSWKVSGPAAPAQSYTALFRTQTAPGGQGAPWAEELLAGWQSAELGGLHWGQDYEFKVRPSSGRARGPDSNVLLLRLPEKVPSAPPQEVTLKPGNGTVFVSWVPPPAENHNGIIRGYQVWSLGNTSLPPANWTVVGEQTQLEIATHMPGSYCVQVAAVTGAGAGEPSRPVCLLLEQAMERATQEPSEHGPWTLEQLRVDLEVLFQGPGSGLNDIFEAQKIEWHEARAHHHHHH
# T2: murine (mu) Robo 4 ECD-PreS-Avi-His (mouse)
# T2 construct: also called recombinant murine Robo 4; murine Robo 4
# T2 chain: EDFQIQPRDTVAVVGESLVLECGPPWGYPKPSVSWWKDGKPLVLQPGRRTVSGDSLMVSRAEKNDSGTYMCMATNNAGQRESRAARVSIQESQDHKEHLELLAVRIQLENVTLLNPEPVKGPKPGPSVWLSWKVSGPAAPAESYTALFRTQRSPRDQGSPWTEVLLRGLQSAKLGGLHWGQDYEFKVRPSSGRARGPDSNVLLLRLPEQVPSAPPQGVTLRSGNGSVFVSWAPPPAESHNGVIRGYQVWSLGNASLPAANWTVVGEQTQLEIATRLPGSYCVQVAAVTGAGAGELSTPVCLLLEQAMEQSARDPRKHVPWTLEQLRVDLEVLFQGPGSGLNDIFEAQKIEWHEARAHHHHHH
# T3: recombinant cynomolgus Robo 4 ECD fused to AcTEV protease recognition site, Avi- and 6xHis-tag (cynomolgus)
# T3 construct: Biotinylated in the avidity assay
# T3 chain: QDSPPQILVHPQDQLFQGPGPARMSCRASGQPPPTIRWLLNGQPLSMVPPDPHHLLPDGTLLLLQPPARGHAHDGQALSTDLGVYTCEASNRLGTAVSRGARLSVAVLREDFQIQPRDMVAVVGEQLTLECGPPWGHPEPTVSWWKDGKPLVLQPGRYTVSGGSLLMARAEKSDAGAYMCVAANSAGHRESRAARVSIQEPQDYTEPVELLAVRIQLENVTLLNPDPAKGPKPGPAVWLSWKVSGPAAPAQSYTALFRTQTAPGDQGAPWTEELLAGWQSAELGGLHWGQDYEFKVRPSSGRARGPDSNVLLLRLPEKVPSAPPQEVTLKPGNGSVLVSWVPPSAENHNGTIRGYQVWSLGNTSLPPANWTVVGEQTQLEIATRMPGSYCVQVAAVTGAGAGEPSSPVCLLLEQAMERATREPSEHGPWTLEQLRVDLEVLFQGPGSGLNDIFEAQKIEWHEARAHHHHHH
# B1: 7G2 anti-Robo 4 IgG (antibody, V domains shown)
# VH: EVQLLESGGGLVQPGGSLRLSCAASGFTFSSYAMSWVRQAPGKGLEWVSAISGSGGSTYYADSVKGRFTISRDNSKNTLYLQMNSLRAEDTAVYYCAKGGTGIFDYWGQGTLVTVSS
# VL: EIVLTQSPGTLSLSPGERATLSCRASQSVSSSYLAWYQQKPGQAPRLLIYGASSRATGIPDRFSGSGSGTDFTLTISRLEPEDFAVYYCQQGQLPPRTFGQGTKVEIK
# notes: also called 7G2 IgG
# B2: 01E06 anti-Robo 4 IgG (antibody, V domains shown)
# VH: EVQLVESGGGLSQPGNSLKLSCEASGFTFRNYDMSWVRQAPGKGLEWVAYISSGGGPIYYVDAVKGRFTISRDNAKNLLFLQMNNLRSEDTAVYYCARDLADIGVFDYWGQGTMVTVSS
# VL: DFKMTQSPDILSPSLGESVTITCQSSQNIYSNLAWYQQKPGEHPKLLIYTASILADGIPSRFTGSGSGTQFSLKISSLQPDDVANYYCQQYVYYRTFGPGTKLEIK
# notes: also called 01E06 IgG
# B3: 01F09 anti-Robo 4 IgG (antibody, V domains shown)
# VH: QIQLQESGPGLVKPSQSLSLTCSVTGYSISSGSLWTWIRQFPGNNLEWMGYISYAGGIDYNPSLTSRISITRDTSRNQFFLQLESVTTQDTATYYCATPGGYPFHFDYWGQGTMVTVSS
# VL: QPVLTQSPSASASLGASVKLTCTLNSQFSTYNIGWYQQHRDKPPKYVMFVKGDGGHSKADGIPDRFSGSSSGADRYLTISNIQAEDEAIYFCGADYNNAGQYGCVFGSGTHFTVLG
# notes: also called 01F09 IgG
# B4: 01F05 anti-Robo 4 IgG (antibody, V domains shown)
# VH: QVQLKQSGAELVKPGASVKISCKTSVYTFTYGYMHWVEQKPGQGLEWIGRIDPDSGNSMYNQKFQGRATLTRDKSSSTVYMELRSLTSEDSAVYYCARSMRYSGYRDYALDLWGQGTQVTVSS
# VL: QLVLTQSPSASASLGASVKLTCTLSSQHSSYGITWLQQHPDKAPKYVMYLKSDGSHTKGADIPDRFSGSSSGVHRYLSISNVQPEDEAIYFCVTYDSTHVFGSGTQLTVLG
# notes: also called 01F05 IgG
# Target: T4, human Robo 4 FN-like domain 1-Fc (human, UniProt P0DOX5 222-449 = IgG part)
# T4 construct: also called fibronectin-like domain 1
# Test: SPR, IgG captured via anti-human Fab, domain-Fc as analyte
# Protocol: (§1) All surface plasmon resonance (SPR) experiments are performed on a Biacore T100 at 25° C. with HBS-EP as running buffer (0.01 M HEPES pH 7.4, 0.15 M NaCl, 3 mM EDTA, 0.005% Surfactant P20 (Biacore)).
# (§2) For determination of the epitope of the four analyzed anti-Robo 4 antibodies, domain variants of human Robo 4 (FN-like domain 1, FN-like domain 2, Ig-like domain 1 and Ig-like domain 2) were used. Anti-Robo 4 antibodies were captured for 60 s at 50 nM on a sensorchip surface with immobilized anti-human Fab specific antibody (GE Healthcare). Domain variants of human Robo 4 were passed at a concentration range of 0.46-1000 nM with a flow of 30 μl/min through the flow cells over 90 s. The dissociation was monitored for 120 s. Bulk refractive index differences were corrected for by subtracting the response obtained on reference flow cell as described above.
row,binding result,Binder
1,no binding (tested: 0.46-1000 nM),B1
2,no binding (tested: 0.46-1000 nM),B2
3,no binding (tested: 0.46-1000 nM),B3
4,no binding (tested: 0.46-1000 nM),B4

# Target: T5, human Robo 4 FN-like domain 2-Fc (human, UniProt P0DOX5 222-449 = IgG part)
# T5 construct: also called fibronectin-like domain 2
# Test: as above
# Protocol: as §1, §2
binding result,Kd [nM],Binder
no binding (tested: 0.46-1000 nM),–,B1
no binding (tested: 0.46-1000 nM),–,B2
no binding (tested: 0.46-1000 nM),–,B3
–,30.6,B4

# Target: T6, human Robo 4 Ig-like domain 1-Fc (human, UniProt P0DOX5 222-449 = IgG part)
# T6 construct: also called IgG-like domain 1
# Test: as above
# Protocol: as §1, §2
Kd [nM],binding result,Binder
151,–,B1
–,no binding (tested: 0.46-1000 nM),B2
–,no binding (tested: 0.46-1000 nM),B3
–,no binding (tested: 0.46-1000 nM),B4

# Target: T7, human Robo 4 Ig-like domain 2-Fc (human, UniProt P0DOX5 222-449 = IgG part)
# T7 construct: also called IgG-like domain 2
# Test: as above
# Protocol: as §1, §2
Kd [nM],binding result,Binder
66.7,–,B1
4.9,–,B2
55.5,–,B3
–,no binding (tested: 0.46-1000 nM),B4

# Target: T1, human (hu) Robo 4 extracellular domain …
# Test: SPR Biacore T100, IgG captured via anti-human Fab, antigen as analyte (affinity)
# Protocol: as §1
# Anti Robo 4 antibodies were captured for 60 s at 50 nM. Recombinant human, murine and cynomolgus Robo 4 were passed at a concentration range from 0.46-1000 nM with a flow of 30 μl/min through the flow cells over 90 s. The dissociation was monitored for 120 s. Bulk refractive index differences were corrected for by subtracting the response obtained on a reference flow cell. Here, the antigens were flown over a surface with immobilized anti-human Fab specific antibody on which HBS-EP has been injected rather than the antibodies.
# (§3) Kinetic constants were derived using the Biacore T100 Evaluation Software (vAA, Biacore), to fit rate equations for 1:1 Langmuir binding by numerical integration.
Kd [nM],koff [s⁻¹],kon [M⁻¹ s⁻¹],Binder
23.4,0.00102,43800,B1
0.69,0.00033,479000,B2
2.63,0.00063,241000,B3
15.3,0.00091,59600,B4

# Target: T2, murine (mu) Robo 4 ECD-PreS-Avi-His
# Test: SPR Biacore T100, biotinylated antigen on streptavidin chip, IgG as analyte (avidity)
# Protocol: as §1
# (§4) Determination of avidity was done by direct immobilization of biotinylated recombinant human, murine and cynomolgus Robo 4 on a Streptavidin sensor chip. Immobilization level ranged from 300 to 1000 RU. Anti-Robo 4 antibodies were passed through the flow cells for 220 s at 30 μl/min in a concentration range from 0.78-50 nM. Dissociation was monitored for 220 s. For the blank and the 25 nM injection dissociation was monitored for 600 s.
# as §3
Kd [nM],koff [s⁻¹],kon [M⁻¹ s⁻¹],Binder
1.07,0.000805,750000,B2
1.09,0.00115,1.05e+06,B3
0.19,7.32e-05,373000,B4

# Target: T3, recombinant cynomolgus Robo 4 ECD fused …
# Test: as above
# Protocol: as §1, §4, §3
Kd [nM],koff [s⁻¹],kon [M⁻¹ s⁻¹],Binder
0.94,0.000291,310000,B1
0.0001,–,1.13e+06,B2
0.37,0.000817,2.22e+06,B3
0.58,0.000475,822000,B4

# Target: T1, human (hu) Robo 4 extracellular domain …
# Test: as above
# Protocol: as §1, §4, §3
Kd [nM],koff [s⁻¹],kon [M⁻¹ s⁻¹],Binder
0.421,0.000152,361000,B1
0.0007,~1.25e-06,1.76e+06,B2
0.018,3.78e-05,2.1e+06,B3
0.093,6.13e-05,657000,B4
